Results from US20190309059A1 (SHANGHAI PHARMAEXPLORER, published 2019).

Key:
[1] = target: his-labeled human IL-13 (immunogen A) (human) (UniProt P35225); test: FACS blocking, biotin-IL-13 on IL-13Ra1/IL-4Ra HEK293 cells; antibody at 6.67 nM
[2] = target: his-labeled human IL-13 (immunogen A) (human) (UniProt P35225); test: FACS blocking, biotin-IL-13 on IL-13Ra1/IL-4Ra HEK293 cells; antibody at 33.33 nM
[3] = target: his-labeled human IL-13 (immunogen A) (human) (UniProt P35225); test: cell-based or functional assay
[4] = target: his-labeled human IL-13 (immunogen A) (human) (UniProt P35225); test: FACS blocking assay: antibody titrated with biotin-labeled immunogen A (20 ng/mL); blocked partner IL-13Ra2 on HEK293 clone 1A1; Alexa 488 streptavidin
[5] = target: his-labeled human IL-13 (immunogen A) (human) (UniProt P35225); test: FACS blocking, biotin-IL-13 on IL-13Ra1/IL-4Ra HEK293 cells; antibody at 0.01 nM
[6] = target: his-labeled human IL-13 (immunogen A) (human) (UniProt P35225); test: FACS blocking, biotin-IL-13 on IL-13Ra2 HEK293 cells; antibody at 0.27 nM
[7] = target: his-labeled human IL-13 (immunogen A) (human) (UniProt P35225); test: FACS blocking, biotin-IL-13 on IL-13Ra1/IL-4Ra HEK293 cells; antibody at 0.002 nM
[8] = target: his-labeled human IL-13 (immunogen A) (human) (UniProt P35225); test: FACS blocking, biotin-IL-13 on IL-13Ra2 HEK293 cells; antibody at 1.33 nM
[9] = target: his-labeled human IL-13 (immunogen A) (human) (UniProt P35225); test: ELISA, biotin-immunogen A; antibody at 2.67 nM
[10] = target: his-labeled human IL-13 (immunogen A) (human) (UniProt P35225); test: FACS blocking, biotin-IL-13 on IL-13Ra2 HEK293 cells; antibody at 0.05 nM
[11] = target: cynomolgus IL-13 (purchased from sino biological) (cynomolgus) (UniProt Q0PW92); test: ELISA, cynomolgus IL-13; antibody at 0.004 nM
[12] = target: cynomolgus IL-13 (purchased from sino biological) (cynomolgus) (UniProt Q0PW92); test: ELISA, cynomolgus IL-13; antibody at 0.11 nM
[13] = target: cynomolgus IL-13 (purchased from sino biological) (cynomolgus) (UniProt Q0PW92); test: ELISA, cynomolgus IL-13; antibody at 0.53 nM
[14] = target: his-labeled human IL-13 (immunogen A) (human) (UniProt P35225); test: FACS blocking, biotin-IL-13 on IL-13Ra2 HEK293 cells; antibody at 0.01 nM
[15] = target: his-labeled human IL-13 (immunogen A) (human) (UniProt P35225); test: FACS blocking, biotin-IL-13 on IL-13Ra1/IL-4Ra HEK293 cells; antibody at 1.33 nM
[16] = target: his-labeled human IL-13 (immunogen A) (human) (UniProt P35225); test: FACS blocking, biotin-IL-13 on IL-13Ra2 HEK293 cells; antibody at 6.67 nM
[17] = target: his-labeled human IL-13 (immunogen A) (human) (UniProt P35225); test: FACS blocking, biotin-IL-13 on IL-13Ra2 HEK293 cells; antibody at 33.33 nM
[18] = target: his-labeled human IL-13 (immunogen A) (human) (UniProt P35225); test: FACS blocking, biotin-IL-13 on IL-13Ra1/IL-4Ra HEK293 cells; antibody at 166.67 nM
[19] = target: his-labeled human IL-13 (immunogen A) (human) (UniProt P35225); test: FACS blocking, biotin-IL-13 on IL-13Ra2 HEK293 cells; antibody at 166.67 nM
[20] = target: his-labeled human IL-13 (immunogen A) (human) (UniProt P35225); test: FACS blocking, biotin-IL-13 on IL-13Ra1/IL-4Ra HEK293 cells; antibody at 0.27 nM
[21] = target: his-labeled human IL-13 (immunogen A) (human) (UniProt P35225); test: FACS blocking, biotin-IL-13 on IL-13Ra2 HEK293 cells; antibody at 0.002 nM
[22] = target: cynomolgus IL-13 (purchased from sino biological) (cynomolgus) (UniProt Q0PW92); test: ELISA, cynomolgus IL-13; antibody at 0.021 nM
[23] = target: cynomolgus IL-13 (purchased from sino biological) (cynomolgus) (UniProt Q0PW92); test: ELISA, cynomolgus IL-13; antibody at 2.67 nM
[24] = target: his-labeled human IL-13 (immunogen A) (human) (UniProt P35225); test: FACS blocking, biotin-IL-13 on IL-13Ra1/IL-4Ra HEK293 cells; antibody at 0.05 nM
[25] = target: his-labeled human IL-13R130Q variant (human) (UniProt P35225); test: ELISA, IL-13R130Q variant; antibody at 2.67 nM
[26] = target: cynomolgus IL-13 (purchased from sino biological) (cynomolgus) (UniProt Q0PW92); test: ELISA, cynomolgus IL-13; antibody at 13.3 nM
[27] = target: cynomolgus IL-13 (purchased from sino biological) (cynomolgus) (UniProt Q0PW92); test: ELISA, cynomolgus IL-13; antibody at 0.107 nM

Sequence of cynomolgus IL-13 (purchased from sino biological) (cynomolgus) (Q0PW92 entry or part of it): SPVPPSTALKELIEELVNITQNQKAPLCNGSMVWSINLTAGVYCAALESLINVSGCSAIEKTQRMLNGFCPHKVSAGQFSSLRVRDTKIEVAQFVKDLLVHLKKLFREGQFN
Sequence of his-labeled human IL-13R130Q variant (human) (P35225 other isoform, or with tags, fused parts or gaps mutant): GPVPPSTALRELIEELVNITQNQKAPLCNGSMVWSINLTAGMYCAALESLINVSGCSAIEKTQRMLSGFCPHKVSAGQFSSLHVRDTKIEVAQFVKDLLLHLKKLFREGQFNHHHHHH

B1: 28A2E11 (lead antibody, mouse hybridoma) (antibody, V domains shown)
VH: EVQLQQSGAELVKPGASVKLSCTASGFNIKDYYMHWVKQRTEQGLEWIGRIDPEDGETKYAPKFHDKATLTADTSSNTAYLQFSSLASEDTAVYYCTRYDYYGPFAYWGQGTLVTVSA
VL: QAVVTQESVLTTSPGETVTLTCRSSTGAVTTSNYANWVQEKPDHLFTGLIGGTNNRAPGVPARFSGSLIGDKAALTITGAQTEDEAIYFCALWYINHFIFGSGTKVTVL
notes: Mouse monoclonal antibody purified from hybridoma supernatant on Protein G
For B1, the mean fluorescence intensity [1] was 28.8, the mean fluorescence intensity [2] was 27.2 and the TARC (pg/mL), A549 cells + IL-13 5 ng/mL + TNFα; antibody at 0.001 nM [3] was 1850 pg/mL. It also gave a TARC (pg/mL), A549 cells + IL-13 5 ng/mL + TNFα; antibody at 0.004 nM [3] of 1700 pg/mL, a TARC (pg/mL), A549 cells + IL-13 5 ng/mL + TNFα; antibody at 0.021 nM [3] of 1590 pg/mL and a TARC (pg/mL), A549 cells + IL-13 5 ng/mL + TNFα; antibody at 0.11 nM [3] of 1360 pg/mL. It also gave a TARC (pg/mL), A549 cells + IL-13 5 ng/mL + TNFα; antibody at 0.5 nM [3] of 601 pg/mL, a TARC (pg/mL), A549 cells + IL-13 5 ng/mL + TNFα; antibody at 2.7 nM [3] of 118 pg/mL and a TARC (pg/mL), A549 cells + IL-13 5 ng/mL + TNFα; antibody at 13.3 nM [3] of 51 pg/mL. For the same binder, the TARC (pg/mL), A549 cells + IL-13 5 ng/mL + TNFα; antibody at 66.7 nM [3] was 56 pg/mL, the IC50 (read off the curve) [4] was 600 pM and the mean fluorescence intensity [5] was 76.2. The mean fluorescence intensity [6] was 72.1, the mean fluorescence intensity [7] was 74.7 and the mean fluorescence intensity [8] was 60.1. The OD450 nm [9] was 1.69, the mean fluorescence intensity [10] was 76.9 and the OD450 nm [11] was 0.08. The OD450 nm [12] was 0.35, the OD450 nm [13] was 0.83 and the mean fluorescence intensity [14] was 79.7. It also gave a mean fluorescence intensity [15] of 39.6, a mean fluorescence intensity [16] of 55.9 and a mean fluorescence intensity [17] of 56.6. It also gave a mean fluorescence intensity [18] of 24.6, a mean fluorescence intensity [19] of 53.3 and a mean fluorescence intensity [20] of 64.2. For the same binder, the mean fluorescence intensity [21] was 76.5, the OD450 nm [22] was 0.14 and the OD450 nm [23] was 1.35. It also gave a mean fluorescence intensity [24] of 71.5.

B2: c29D9H8 (mouse-human chimeric IL-13 antibody) (antibody, V domains shown)
VH: QVQLQQSGAELVRPGASVTLSCKASGYTFTDYEMHWVKQTPVHGLEWIGGIDPETGGTASNQKFKGKAILTADKSSSTAYMELRSLTSEDSAVYYCTSGDYFGGGPFAYWGQGTLVTVSA
VL: DIKMTQSPSSMYASLGERVTITCKASQDINSYLSWFQQKPGKSPKTLIYRANRLVDGVPSRFSGSGSGQDYSLTISSLDYEDMGIYYCLQYDEFPYTFGGGTKLEIK
With B2 the mean fluorescence intensity [1] was 28.3, the mean fluorescence intensity [2] was 20.2 and the Periostin (pg/mL), MRCS cells + IL-13 5 ng/mL; antibody at 0.0002 nM [3] was 6190 pg/mL. The Periostin (pg/mL), MRCS cells + IL-13 5 ng/mL; antibody at 0.001 nM [3] was 4630 pg/mL, the Periostin (pg/mL), MRCS cells + IL-13 5 ng/mL; antibody at 0.004 nM [3] was 3480 pg/mL and the Periostin (pg/mL), MRCS cells + IL-13 5 ng/mL; antibody at 0.021 nM [3] was 3570 pg/mL. For the same binder, the Periostin (pg/mL), MRCS cells + IL-13 5 ng/mL; antibody at 0.11 nM [3] was 3220 pg/mL, the Periostin (pg/mL), MRCS cells + IL-13 5 ng/mL; antibody at 0.53 nM [3] was 1450 pg/mL and the Periostin (pg/mL), MRCS cells + IL-13 5 ng/mL; antibody at 2.67 nM [3] was 927 pg/mL. For the same binder, the Periostin (pg/mL), MRCS cells + IL-13 5 ng/mL; antibody at 13.3 nM [3] was 1150 pg/mL, the TARC (pg/mL), A549 cells + IL-13 + TNFα; antibody at 0.001 nM [3] was 3160 pg/mL and the TARC (pg/mL), A549 cells + IL-13 + TNFα; antibody at 0.004 nM [3] was 2950 pg/mL. The TARC (pg/mL), A549 cells + IL-13 + TNFα; antibody at 0.021 nM [3] was 2730 pg/mL, the TARC (pg/mL), A549 cells + IL-13 + TNFα; antibody at 0.11 nM [3] was 1850 pg/mL and the TARC (pg/mL), A549 cells + IL-13 + TNFα; antibody at 0.53 nM [3] was 655 pg/mL. The TARC (pg/mL), A549 cells + IL-13 + TNFα; antibody at 2.67 nM [3] was 159 pg/mL, the TARC (pg/mL), A549 cells + IL-13 + TNFα; antibody at 13.3 nM [3] was 50 pg/mL and the TARC (pg/mL), A549 cells + IL-13 + TNFα; antibody at 66.7 nM [3] was 36 pg/mL. For the same binder, the VCAM-1 fluorescence intensity, HUVEC + IL-13 0.5 ng/mL + TNFα; antibody at 0.0002 nM [3] was 364, the VCAM-1 fluorescence intensity, HUVEC + IL-13 0.5 ng/mL + TNFα; antibody at 0.001 nM [3] was 373 and the VCAM-1 fluorescence intensity, HUVEC + IL-13 0.5 ng/mL + TNFα; antibody at 0.004 nM [3] was 393. The VCAM-1 fluorescence intensity, HUVEC + IL-13 0.5 ng/mL + TNFα; antibody at 0.021 nM [3] was 409, the VCAM-1 fluorescence intensity, HUVEC + IL-13 0.5 ng/mL + TNFα; antibody at 0.11 nM [3] was 251 and the VCAM-1 fluorescence intensity, HUVEC + IL-13 0.5 ng/mL + TNFα; antibody at 0.53 nM [3] was 265. For the same binder, the VCAM-1 fluorescence intensity, HUVEC + IL-13 0.5 ng/mL + TNFα; antibody at 2.67 nM [3] was 246, the VCAM-1 fluorescence intensity, HUVEC + IL-13 0.5 ng/mL + TNFα; antibody at 13.3 nM [3] was 186 and the IC50 (read off the curve) [4] was 200 pM. For the same binder, the OD450 nm [25] was 2.92, the mean fluorescence intensity [5] was 101 and the mean fluorescence intensity [6] was 56.3. For the same binder, the mean fluorescence intensity [7] was 105, the mean fluorescence intensity [8] was 34.6 and the mean fluorescence intensity [10] was 81.6. For the same binder, the OD450 nm [11] was 0.17, the OD450 nm [26] was 3.5 and the OD450 nm [13] was 2.68. It also gave a mean fluorescence intensity [14] of 95.9, a mean fluorescence intensity [15] of 45.7 and a mean fluorescence intensity [16] of 25. The mean fluorescence intensity [17] was 22.8, the mean fluorescence intensity [18] was 20 and the OD450 nm [27] was 1.23. It also gave a mean fluorescence intensity [19] of 20.4, a mean fluorescence intensity [20] of 72.6 and a mean fluorescence intensity [21] of 101. For the same binder, the OD450 nm [22] was 0.408, the OD450 nm [23] was 3.2 and the mean fluorescence intensity [24] was 90.3.
